For 2 molecules, Kd, koff and kon results are on record in article PMC4244113.

Common to all, as to test: SPR
Experiment [1] has as its target Turnip mosaic virus (TuMV) viral protein-genome linked (VPg), His-tagged (turnip mosaic virus).
Experiment [2] has the same target. The source holds these as a separate data set.
Experiment [3] shares this target. The source holds these as a separate data set.

Like-named read-outs stand apart in the source and are kept apart here.

Turnip mosaic virus (TuMV) viral protein-genome linked (VPg), His-tagged (turnip mosaic virus), sequence (P89509 1925-2116 limits assumed): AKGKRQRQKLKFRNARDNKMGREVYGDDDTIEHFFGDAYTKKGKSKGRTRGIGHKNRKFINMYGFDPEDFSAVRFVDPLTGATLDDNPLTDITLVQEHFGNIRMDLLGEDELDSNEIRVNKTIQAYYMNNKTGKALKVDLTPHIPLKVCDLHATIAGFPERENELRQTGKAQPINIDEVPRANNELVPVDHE

As to “N-terminal 33 residues-deleted human eIF4E (from UniProt P06730 34-217) (domain or fragment)”, in experiment [1], the Kd is 3.29 µM, the koff worked out at 0.00447 s⁻¹ and the kon stood at 1360 M⁻¹ s⁻¹.

B1: Arabidopsis thaliana eIFiso4E (natural protein)
chain: MATDDVNEPLPAAAELPATEAEKQPHKLERKWSFWFDNQSKKGAAWGASLRKAYTFDTVEDFWGLHETIFQTSKLTANAEIHLFKAGVEPKWEDPECANGGKWTWVVTANRKEALDKGWLETLMALIGEQFDEADEICGVVASVRPQSKQDKLSLWTRTKSNEAVLMGIGKKWKEILDVTDKITFNNHDDSRRSRFTV
In experiment [2], B1 yielded a Kd of 1.41 µM, a koff of 0.00459 s⁻¹ and a kon of 3250 M⁻¹ s⁻¹. Moreover, in experiment [3], the Kd is 0.208 µM, the koff turned out to be 0.00432 s⁻¹ and the kon was 20800 M⁻¹ s⁻¹.

As a reminder, the Kd is the free concentration of one partner at which half of the binding sites on the other are occupied at equilibrium, for simple one-to-one binding. For orientation: koff means the rate constant with which the complex falls apart. A high value points to fast dissociation. Usually kon stands for the rate constant with which the complex forms. A high value points to faster complex formation.
